Measurements taken from paper PMC2712671.

Molecular target: His6-tagged MogR_(1-162) (Listeria monocytogenes) (UniProt P0DJO8)
Experiment: crystal structure

How did the stoichiometry N turn out when “His6-tagged MogR_(1-162) (from UniProt P0DJO8 1-162) (domain or fragment)” was run?
Its stoichiometry N is 2.
